First the molecules themselves.
T1: mouse CADM3 (mouse, UniProt Q99N28 23-396)
T1 construct: Full-length gene expressed transiently on Expi293F cells; also called mouse CADM3/Expi293F cells; Mouse CADM3-expressing cells
T1 sequence: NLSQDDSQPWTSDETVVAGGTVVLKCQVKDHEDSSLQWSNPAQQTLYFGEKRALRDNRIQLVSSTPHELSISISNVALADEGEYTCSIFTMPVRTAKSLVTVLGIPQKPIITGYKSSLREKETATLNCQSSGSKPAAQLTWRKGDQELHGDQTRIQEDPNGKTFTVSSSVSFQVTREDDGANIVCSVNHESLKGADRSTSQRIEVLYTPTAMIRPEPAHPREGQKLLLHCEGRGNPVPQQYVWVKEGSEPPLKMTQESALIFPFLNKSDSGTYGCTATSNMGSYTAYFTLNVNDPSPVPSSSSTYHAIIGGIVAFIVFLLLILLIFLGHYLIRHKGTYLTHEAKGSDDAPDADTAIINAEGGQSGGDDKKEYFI

T2: human CADM3 (human, UniProt Q8N126 25-398)
T2 construct: Full-length gene expressed transiently on Expi293F cells; also called cell adhesion molecule 3; human CADM3/Expi293F cells
T2 sequence: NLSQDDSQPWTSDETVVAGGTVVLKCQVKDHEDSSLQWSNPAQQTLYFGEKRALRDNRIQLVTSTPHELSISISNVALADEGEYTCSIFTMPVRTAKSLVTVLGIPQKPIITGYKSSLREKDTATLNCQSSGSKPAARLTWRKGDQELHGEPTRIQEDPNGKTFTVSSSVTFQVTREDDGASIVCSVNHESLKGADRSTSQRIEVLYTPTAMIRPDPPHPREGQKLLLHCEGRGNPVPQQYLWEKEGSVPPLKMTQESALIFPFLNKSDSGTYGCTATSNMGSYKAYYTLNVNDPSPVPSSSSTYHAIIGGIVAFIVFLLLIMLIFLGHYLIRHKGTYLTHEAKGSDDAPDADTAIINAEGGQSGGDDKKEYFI

B1: CADM3312 hG4PE(R409K) (antibody, V domains shown)
VH: QLQLQESGPGLVKPSETLSLTCSVSGGSIRGHYWSWIRQPPGKGLEWMGYINHIGSAAYNPSLKSRVTISVDTSKNQFSLKLSSVTAADTAVYYCARMGPWWELDYWGQGTLVTVSS
VL: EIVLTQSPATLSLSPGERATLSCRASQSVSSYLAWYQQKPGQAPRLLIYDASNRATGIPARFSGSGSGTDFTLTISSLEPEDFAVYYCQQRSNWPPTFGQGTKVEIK
notes: Human IgG4 variant (S228P, L235E, R409K), vector pCI-hKG4PE(R409K)
B2: iCADM3_3R1-L5 VHH-hG4PE(R409K) (Fc fusion)
chain: QVQLVESGGGLVQAGGSLRLSCAASGSIVSVNAMGWYRQAPGKQRELVATITSGGSTNYADSAKGRFTISRDNAKNTMYLQMNSLKPEDTAVYYCNGEFWSRRDTRPPGVVNYWGQGTQVTVSS
notes: VHH-Fc antibody; also called anti-CADM3 VHH-Fc antibody iCADM3_3R1-L5; not shown: Hinge-CH2-CH3 region of the human IgG4 heavy chain constant region (IgG4 variant)
B3: CADM3316 hG4PE(R409K) (antibody, V domains shown)
VH: EVQLVETGGALVQPGGSLRLSCAASGFTFSSYSMNWVRQAPGKGLEWLSGISGGAFSTHYADSVKGRFTISRDNSKNTLYLQMNSLRAEDTAVYYCARVGRLSGSYNRYYYYYGMDVWGQGTLVTVSS
VL: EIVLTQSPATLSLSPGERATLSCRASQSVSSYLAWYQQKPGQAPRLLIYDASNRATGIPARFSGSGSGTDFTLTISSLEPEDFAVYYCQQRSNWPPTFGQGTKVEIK
notes: as for B1
B4: CADM3351 hG4PE(R409K) (antibody, V domains shown)
VH: EVQLLQSGGGLVQPGGSLRLSCAASGLIFSDHYMDWVRQAPGKGLEWVGSIRNKRNGGSTEYAASVKGRFSISRDDSKNSLYLQMNSLKTEDTAMYFCATTRTGYQGFYGMDVWGQGTTVTVSS
VL: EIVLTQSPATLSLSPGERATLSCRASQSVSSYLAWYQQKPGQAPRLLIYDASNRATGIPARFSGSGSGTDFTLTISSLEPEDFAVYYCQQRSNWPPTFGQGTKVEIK
notes: as for B1
B5: CADM3102 scFv-hG4PE (Fc fusion)
VH: QMQLVQSGAEVKKPGSSVKVSCKASGGTFSSYAISWVRQAPGQGLEWMGGIIPMSGTANYAQKFQGRVTITADESTSTAYMELSSLRSEDTAVYYCARVEESGWYDHYHGMDVWGQGTTVTVSS
VL: DVVMTQSPLSLPVTPGEPASISCTSSQSLLYSNGFNYLDWYLQKPGQSPQLLIYLGSNRASGVPDRFSGSGSGTDFTLKISRVEAEDVGVYYCMQALTTHPTFGGGTKVDIK
notes: also called anti-CADM3 scFv-Fc antibody
B6: CADM3404 hG4PE(R409K) (antibody, V domains shown)
VH: EVQLVETGGGVVQPGRSLRLSCAASGFAFSNYGMHWVRQAPGKGLEWVSVIYSGGNTDYADSVKGRFTISRDNSKNTVYLQMNSLRAEDTAVYYCASRRVVPGVIDYFDSWGQGTLVTVSS
VL: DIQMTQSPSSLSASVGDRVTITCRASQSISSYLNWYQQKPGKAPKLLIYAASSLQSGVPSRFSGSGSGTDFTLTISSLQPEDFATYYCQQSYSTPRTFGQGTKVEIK
notes: as for B1
B7: CADM3402 hG4PE(R409K) (antibody, V domains shown)
VH: B6 VH with T7S, V11L, R16G, A24T, A28R, N31M, A40S
VL: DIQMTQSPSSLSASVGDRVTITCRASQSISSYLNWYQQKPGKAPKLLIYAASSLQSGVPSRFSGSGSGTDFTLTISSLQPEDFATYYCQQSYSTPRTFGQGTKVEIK
notes: as for B1
B8: CADM3458 hG4PE(R409K) (antibody, V domains shown)
VH: B6 VH with T7S, A28T, N31R, M34I, S49A
VL: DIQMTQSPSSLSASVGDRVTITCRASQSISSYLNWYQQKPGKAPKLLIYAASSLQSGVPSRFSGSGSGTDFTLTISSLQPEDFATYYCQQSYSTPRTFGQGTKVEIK
notes: as for B1
B9: iCADM3_3R1-L11 VHH-hG4PE(R409K) (Fc fusion)
chain: QVQLVESGGGLVQAGGSLRLSCAASGSIFSFNAMGWYRQAPGKQRGLVAVITSGGYTNYADSVKGRFTITRDNAKNTVYLQMNSLKPEDTAVYYCNAEGVYSDYVIMNYWGQGTQVTVSS
notes: VHH-Fc antibody; also called anti-CADM3 VHH-Fc antibody iCADM3_3R1-L11; not shown: Hinge-CH2-CH3 region of the human IgG4 heavy chain constant region (IgG4 variant)
B10: CADM3219 hG4PE(R409K) (antibody, V domains shown)
VH: QVQLVQSGAEVKKPGASVKVSCKASGYSFTGYYIHWVRQAPGQGLEWMGRINPNSGGTTYAPKFQGRFTMTRDTSTTTVYLELSGLRSEDTAVYYCARVLERQGRPFEADAFDIWGQGTMVTVSS
VL: not shown
notes: as for B1
B11: iCADM3_3R1-L10 VHH-hG4PE(R409K) (Fc fusion)
chain: QVQLVESGGGLVQAGGSLRLSCAASGSIFSIHAMGWYRQAPGKQRELVATVTSGGSTNYADSVKGRFTISRDNAKNTVYLQMNSLKPEDTAVYYCNAETPYYSSTYYTNYWGQGTQVTVSS
notes: VHH-Fc antibody; also called anti-CADM3 VHH-Fc antibody iCADM3_3R1-L10; not shown: Hinge-CH2-CH3 region of the human IgG4 heavy chain constant region (IgG4 variant)
B12: CADM3309 hG4PE(R409K) (antibody, V domains shown)
VH: EVQLVQSGAEMKKPGSSVKLSCKFSGGDFRSYPISWVRQAPGQGLEWMGGIIPIFSRVNYAQRFLGRITITADESTSTAYMELRSLTSDDTAVYYCATDTPSGYNSPYYYKGMDVWGQGTLVTVSS
VL: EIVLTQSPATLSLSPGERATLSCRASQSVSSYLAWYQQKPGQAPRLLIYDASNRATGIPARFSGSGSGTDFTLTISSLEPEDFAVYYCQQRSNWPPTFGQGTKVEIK
notes: as for B1
B13: CADM3349 hG4PE(R409K) (antibody, V domains shown)
VH: QVQLQQWGGGLLTPSETLSLSCDVSGGAFTNYHWTWIRQPPGKGLEWIGEIFHTGTTNYNPSLQGRVAMSIDTTKRQFFLRLTSLTAADTAVYYCARVGKYGWYVGDFWGQGTTVTVSS
VL: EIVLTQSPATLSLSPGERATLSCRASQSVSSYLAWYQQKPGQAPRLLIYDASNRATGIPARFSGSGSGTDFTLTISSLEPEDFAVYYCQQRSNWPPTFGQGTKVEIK
notes: as for B1
B14: CADM3314 hG4PE(R409K) (antibody, V domains shown)
VH: QVQLVESGGGVVQPGGSLRLSCAASGFSFNNHGMHWVRQAPGKGLEWVTFIRFDGSSKYYADSVKGRFTISRDNSKNTVYLEMNSLRAEDTGVYYCVNTPRGWSFDIWGRGTLVTVSS
VL: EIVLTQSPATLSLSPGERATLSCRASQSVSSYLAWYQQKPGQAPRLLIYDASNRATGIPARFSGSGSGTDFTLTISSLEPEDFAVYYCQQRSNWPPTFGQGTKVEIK
notes: as for B1
B15: CADM3301 hG4PE(R409K) (antibody, V domains shown)
VH: QMQLVQSGAEVKKPGSSVKVSCKASGGTFNNYAISWVRQAPGQGLEWMGGNIPLSGTPKYAQKFQGRITMTADKSTSTEYMELSSLTSEDTAVYYCARDTPSGYNSPYYYKGMDVWGQGTMVTVSS
VL: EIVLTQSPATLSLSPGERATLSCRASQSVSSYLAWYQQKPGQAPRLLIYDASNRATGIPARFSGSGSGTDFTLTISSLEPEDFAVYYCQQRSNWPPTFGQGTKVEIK
notes: as for B1
B16: CADM301 scFv-hG4PE (Fc fusion)
VH: QVQLVQSGAEVRRPGTSVKVSCKASGYSFTSYDINWVRLATGQGLEWMGWMNPNTGDTGSPQKFQDRVTMTRDISTGTAYLELRGLKSEDTAIYYCARGFLVTAYTAEFFPHWGQGTLVTVSS
VL: SYVLTQPPSVSVAPGKTARLTCGGNNIGSKSVHWYQQRPGQAPVLVINYDSDRPSGIPERFSGSNSENTATLTISRVEAGDEADYYCQVWDSGSDHVVFGGGTQLIIL
notes: as for B5

Residue numbers refer to the chain shown, from its start. Names may count otherwise.

The target in one experiment is T1, mouse CADM3. The experiment can be described thus: flow cytometry, 10 ug/mL, mouse CADM3/Expi293F vs parent Expi293F cells. (In general: A flow cytometer gives signals particle by particle.)
As for B1, the “Mean fluorescence intensity ratio” value amounted to 31.6.
On the same count and under the same terms, the result for B2 reads 4.21; that for B3, 7.1; that for B4, 8.8.
Still for that read-out and setting: under B5 stands 42.6; under B6, 8.2.
Same read-out and setting: the result for B7 reads 9.4; that for B8, 5.4; that for B9, 35.5.
As for B10, the “Mean fluorescence intensity ratio” value was 9.2.
On the same count and under the same terms, under B11 stands 8.87.
On the same count and under the same terms, the result for B12 reads 12.5.
Same read-out and setting: the result for B13 reads 48.7.
As for B14, the “Mean fluorescence intensity ratio” value turned out to be 9.2.
The same measure, in the same setting: under B15 stands 6.2; under B16, 8.08.

Another experiment has as its target T3, mCADM3-GST (mouse).
T3 construct: also called extracellular domain of mouse CADM3 to which GST was added at the C-terminal side; mouse CADM3-GST
The experiment can be described thus: SPR (Biacore T-100), antibody captured, mCADM3-GST as analyte. As for the experimental part: (§1) The affinity of the anti-CADM3 antibodies produced in Example 2 for human CADM3 and mouse CADM3 was measured using Biacore T-100 (GE Healthcare). Each of the antibodies was immobilized on a […] sensor chip using a Human antibody Capture kit, and the binding ability was evaluated using hCADM3-GST and mCADM3-GST produced in Example 4 as analytes.
(§2) The obtained sensorgram was analyzed with BIA evaluation software, and the dissociation constant (KD value) was calculated.
Background: SPR reads the build-up and loss of mass on a sensor chip optically.
As for B1, the binding result is reported as “binds”.
In the case of B2, the binding result is reported as “binds”.
Still for that read-out and setting: under B3 stands “binds”.
On the same count and under the same terms, under B4 stands “binds”; under B5, “binds”; under B6, “binds”.
Consider B7, for which the binding result is given as “binds”.
The same measure, in the same setting: the result for B8 reads “binds”.
Still for that read-out and setting: under B9 stands “binds”; under B10, “binds”.
Same read-out and setting: under B11 stands “binds”; under B12, “binds”; under B13, “binds”.
As for B14, the binding result is “binds”.
Turning to B15, the binding result is given as “binds”.
Still for that read-out and setting: under B16 stands “binds”.

The next experiment deals with T4, hCADM3-GST (human).
T4 construct: also called extracellular domain of human CADM3 to which GST was added at the C-terminal side; human CADM3-GST
The experiment can be described thus: SPR (Biacore T-100), antibody captured, hCADM3-GST as analyte. How it is done:
as §1, §2
B1: the binding result was “binds”.
Still for that read-out and setting: the result for B2 reads “binds”; that for B3, “binds”.
Still for that read-out and setting: the result for B4 reads “binds”.
As to B5, the binding result is listed as “binds”.
Same read-out and setting: under B6 stands “binds”; under B7, “binds”.
As for B8, the binding result is recorded as “binds”.
Regarding B9, the binding result is on record as “binds”.
On the same count and under the same terms, the result for B10 reads “binds”; that for B11, “binds”; that for B12, “binds”.
For the molecule B13, the binding result is “binds”.
Take B14: the binding result is “binds”.
On the same count and under the same terms, under B15 stands “binds”; under B16, “binds”.

A further experiment addresses T2, human CADM3. Put plainly: flow cytometry, 10 ug/mL, human CADM3/Expi293F vs parent Expi293F cells. As for the experimental part:
By using the cells, the reactivity of the antibodies produced in Example 2 with the CADM3-expressing cells was analyzed by a fluorescence activated cell sorting (FACS) method according to the following procedure.
After washing with SB, the cells were suspended in SB, and the fluorescence intensity of each cell was measured using a flow cytometer FACS CANTO II (manufactured by Becton, Dickinson and Company). Note that as a negative control, 10 μg/mL of the anti-AVM antibody was used.
The detection results were analyzed, and a mean fluorescence intensity (MFI) was calculated using a geometric mean. Further, with respect to the MFI when the concentration of each antibody was 10 μg/mL, the ratio of the MFI (mean fluorescence intensity ratio) between the human CADM3/Expi293F cells and the Expi293F cells (parent cell line) was calculated.
As to B1, the “Mean fluorescence intensity ratio” value came out at 34.4.
On the same count and under the same terms, under B2 stands 25.1.
Still for that read-out and setting: the result for B3 reads 6.5; that for B4, 8.2; that for B5, 52.3.
Same read-out and setting: the result for B6 reads 8.7; that for B7, 10.8; that for B8, 5.7.
For the molecule B9, the “Mean fluorescence intensity ratio” value worked out at 32.2.
Same read-out and setting: the result for B10 reads 7.3; that for B11, 37.5; that for B12, 10.2.
Same read-out and setting: under B13 stands 4.8; under B14, 10; under B15, 6.
Still for that read-out and setting: the result for B16 reads 4.22.

(Values after patent US20210147541A1 (Kyowa Kirin, published 2021).)
